Laboratory results: PMC3618186 (2013)

Molecular target: the molecule itself
Assay: sedimentation equilibrium AUC

B1: p150Glued CC1 CC1 (protein)
chain: SKEEEGLRAQVRDLEEKLETLRLKRAEDKAKLKELEKHKIQLEQVQEWKSKMQEQQADLQRRLKEARKEAKEALEAKERYMEEMADTADAIEMATLDKEMAEERAESLQQEVEALKERVDELTTDLEILKAEIEEKGSDGAASSYQLKQLEEQNARLKDALVRMRDLSSSEKQEHVKLQKLMEKKNQELEVVRQQRERLQEELSQAESTIDELKEQVDAALGAEEMVEMLTDRNLNLEEKVRELRETVGDLEAMNEMNDELQENARETELELREQLDMAGARVREAQKRVEAAQETVADYQQTIKKYRQLTAHLQDVNRELTNQQEASVERQQQ
  Kd: < 1 nM
